Experimental data as given in patent publication US20200131489, “ENGINEERED MEGANUCLEASES SPECIFIC FOR RECOGNITION SEQUENCES IN THE PCSK9 GENE” (Precision BioSciences, Inc., published 2020).
Where a chain is given by its changes, count along the chain named.

How the values were obtained:
Test in all cases: cell_activity; HEK293 mRNA electroporation, 48 h, mock 0.40%
Details in all cases: tags: N-terminal SV40 NLS
PCS 7-8L.268 = molecular target: T1, PCS 7-8L.268 (synthetic (I-CreI derived, …))
T1 chain: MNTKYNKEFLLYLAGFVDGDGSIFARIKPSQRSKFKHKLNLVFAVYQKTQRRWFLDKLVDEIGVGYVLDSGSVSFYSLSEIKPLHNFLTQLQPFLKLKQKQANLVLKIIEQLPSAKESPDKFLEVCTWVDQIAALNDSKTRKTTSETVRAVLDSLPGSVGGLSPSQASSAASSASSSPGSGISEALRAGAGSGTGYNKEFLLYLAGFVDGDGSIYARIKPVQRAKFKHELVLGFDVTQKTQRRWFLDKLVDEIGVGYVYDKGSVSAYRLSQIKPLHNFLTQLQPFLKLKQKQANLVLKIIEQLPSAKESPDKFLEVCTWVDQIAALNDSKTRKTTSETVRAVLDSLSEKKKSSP
Procedure: (§1) In order to directly observe insertions or deletions at the intended PCS 7-8 meganuclease target site, a deep sequencing protocol was used. 2e⁶ HEK 293 cells were electroporated with 5 ug of PCS 7-8 meganuclease mRNA using a BioRad Gene Pulser Xcell according to the manufacturer's instructions. A mock electroporation was also performed with no mRNA. At 48 hours post-transfection, genomic DNA (gDNA) was harvested from cells. The PCS 7-8 locus was amplified by PCR using primers that flank the PCS 7-8 recognition sequence. This amplicon was run on an agarose gel for visual confirmation, extracted using a Macherey-Nagel Nucleospin Gel and PCR Clean-up kit, and sequencing libraries were prepared using the NEBNext Ultra II DNA Library Kit for Illumina from New England Biolabs. The paired-end sequencing libraries were read on an Illumina Miseq DNA sequencer. Sequencing data was analyzed using custom scripts. Reads with start or end points not within 25 bp of the full-length amplicon were removed. The percent of reads with indels was calculated by dividing the number of full-length reads having an indel that incorporated at least one of the middle 8 bp of the recognition sequence by the total number of full-length reads.

PCS 7-8L.209 = molecular target: T2, PCS 7-8L.209 (synthetic (I-CreI derived, …))
T2 chain: T1 chain with N40L
Procedure: as §1

PCS 7-8L.262 = molecular target: T3, PCS 7-8L.262 (synthetic (I-CreI derived, …))
T3 chain: T1 chain with K28V, N40R, K219R, V258A
Procedure: as §1

PCS 7-8L.204 = molecular target: T4, PCS 7-8L.204 (synthetic (I-CreI derived, …))
T4 chain: T1 chain with K28V, N40R, V231R
Procedure: as §1

PCS 7-8L.261 = molecular target: T5, PCS 7-8L.261 (synthetic (I-CreI derived, …))
T5 chain: T1 chain with K28V, N40R, K219R, V231R
Procedure: as §1

B1: PCS 7-8 recognition sequence (dsDNA)
DNA 1: TGGACCTCTTTGCCCCAGGGGA
DNA 2: TCCCCTGGGGCAAAGAGGTCCA
- activity (PCS 7-8L.268): 52.5 % indels
- activity (PCS 7-8L.209): 53.2 % indels
- activity (PCS 7-8L.262): 53.5 % indels
- activity (PCS 7-8L.204): 58.4 % indels
- activity (PCS 7-8L.261): 55.4 % indels
